Laboratory results: US10184137B2, “Method of producing isoprene monomer” (AJINOMOTO CO., INC., priority 2014, dated 2019)
Several values for one entry are separate records, joined by “and”; a condition that tells them apart may be missing. Equal entries are not always repeated.

Columns and labels:
Assay type in all cases: biochemical
mevalonate kinase [1] = assay: Inhibition of each mevalonate kinase by DMAPP, GPP, FPP or DPM
Experimental: Since GPP and FPP solutions contain methanol, methanol which was needed to keep the same methanol level at the addition to the reaction system was added to the reaction solution, which was designated as control.
Respective effect of the added 5 mM DMAPP, 0.1 mM GPP, and 0.1 mM FPP on the activity of each enzyme was measured. […] Contrarily, mcl-derived enzyme was activated by 5 mM DMAPP and its activity increased by 20% from that of the control.
Activity when 10 μl of each enzyme was added to 1 ml of the reaction system was represented by dABS/min
Effect of 1 mM diphosphomevalonate (DPM) on each enzyme was also studied.

mevalonate kinase [2] = assay: Measurement of activity and Km value of purified mevalonate kinase (PK/LDH coupled, 340 nm); details: for dABS/min at ATP 0.2 mM / dABS/min at ATP 1 mM / dABS/min at ATP 5 mM / dABS/min at ATP 0.04 mM: potassium mevalonate 5 mM; for dABS/min at ATP 0.2 mM / dABS/min at ATP 1 mM / dABS/min at ATP 5 mM / dABS/min at mev 0.01 mM / dABS/min at mev 0.04 mM / dABS/min at mev 0.2 mM / dABS/min at ATP 0.04 mM: 10 μl enzyme in 1 ml, replicate values; for dABS/min at mev 0.01 mM: potassium mevalonate 0.01 mM; for dABS/min at ATP 5 mM / dABS/min at mev 0.01 mM / dABS/min at mev 0.04 mM / dABS/min at mev 0.2 mM: ATP 5 mM; for dABS/min at mev 0.04 mM: potassium mevalonate 0.04 mM; for dABS/min at mev 0.2 mM: potassium mevalonate 0.2 mM
Experimental: Each obtained plasmid was used for transformation of E. coli BL21(DE3). […] When OD600 reached approximately 0.5, 0.1 mM IPTG (for cva, mma, nmr, and sce) or 1 mM (for mcl and mpd) of IPTG was added, and then the mixture was kept at 20° C. overnight to induce the target protein. Harvested cells were suspended in buffer solution A (50 mM sodium phosphate, 0.3 M NaCl and 20 mM Imidazol), and then the cells were disrupted with an ultrasonic disruptor (TOMY: UD-201). […] After centrifugation (28,000×g, 30 min), the supernatant was adsorbed onto His-Trap HP (GE Healthcare) to elute the target protein by linear concentration gradient of Imidazol (final concentration 0.5 M). Obtained protein was dialyzed by using an external solution composed of 20 mM Tris-HCl (pH 8.0) containing 1 mM DTT and 50 mM NaCl. Dialyzed protein was designated as purified enzyme. Protein quantity was measured with Bio-RAD protein assay kit and BSA standard condition.
(§1) Decrease in absorbance at 340 nm at 30° C. was measured to determine the enzyme activity. JASCO Corporation's spectrophotometer (V-650) was used in this study. Millimolar extinction coefficient of NADH used in this study was 6.22 mM^−1 cm^−1. […] Km value was calculated by Lineweaver-Burk plot.
Measured activity of each enzyme (JABS/min) was presented on Table 9 for the calculation of apparent Km value (Km app.) of each enzyme. Table 10 presents Km app., Vmax, molecular weight of the enzyme protein, protein concentration in the enzyme solution and calculated kcat.
Activity was indicated by dABS/min when 10 μl of each enzyme was added to 1 ml of reaction solution.

mevalonate kinase [3] = assay: Examination of product inhibition on each mevalonate kinase (absorbance at 386 nm, PMK addition); details: 1 mM mevalonate as substrate; in words
Experimental: When decrease in absorbance stopped, purified PMK was added to measure further decrease in absorbance at 386 nm.
FIG. 18 presents the SDS-PAGE profile of the purified PMK. […] Then, absorbance decreased further and finally absorbance at 386 nm decreased to 0.3 in all reaction systems. Therefore, it is inferred that mevalonate is converted into diphosphomevalonate via phosphomevalonate by adding PMK to each MVK.

mevalonate kinase [4] = assay: Expression analysis and activity confirmation of His-tagged mevalonate kinases from pET-21a(+) and pET-28b(+); details: His-spinTrap eluate after dialysis, 10 μl enzyme solution
Experimental: Each obtained plasmid was used for transformation of E. coli BL21(DE3). […] When OD600 reached approximately 0.5, IPTG was added to the solution to final concentration of 1 mM. It was then cultured overnight at 20° C. Harvested cells were suspended in the buffer solution consisting of 50 mM sodium phosphate, 0.3 M NaCl and 20 mM Imidazol. Then the cells were disrupted with an ultrasonic disruptor (TOMY: UD-201, output level=3.5). After centrifugation (20,000×g, 20 min), disrupted cells were adsorbed to His-spinTrap (GE Healthcare). After washing with the same buffer solution, protein was eluted with the buffer solution consisting of 50 mM sodium phosphate, 0.3 M NaCl and 0.5 M imidazole (pH7.5). Eluate was dialyzed overnight at 4° C. with the external solution composed of 20 mM Tris-HCl (pH7.5) and 50 mM NaCl. Then, enzyme activity of each eluate in the internal dialysis solution was measured.
Activity of the internal dialysate (about 0.2 ml each) was measured with the 10 μl of enzyme solution (Table 8). Enzyme expression level was compared on activity basis between pET-21a(+) and pET-28b(+). […] It is inferred that expression level is higher in pET-28b(+). Therefore, purified enzyme expressed in pET-28b(+) was used in the further examinations.
Values were presented by decrease in absorbance per unit time per 10 μl in the enzyme reaction measurement system (dABS/min/10 μl).
as §1

[5] = Table 11 control without terpenyl diphosphate (methanol added)

Molecule | enzyme activity, Control (mevalonate kinase [1]; [5]) [dABS/min] | enzyme activity, Control (mevalonate kinase [1]; Table 12 control without DPM) [dABS/min] | dABS/min at ATP 0.2 mM (mevalonate kinase [2]) | dABS/min at ATP 1 mM (mevalonate kinase [2]) | dABS/min at ATP 5 mM (mevalonate kinase [2]) | dABS/min at mev 0.01 mM (mevalonate kinase [2]) | dABS/min at mev 0.04 mM (mevalonate kinase [2]) | dABS/min at mev 0.2 mM (mevalonate kinase [2]) | course of decrease in absorbance at 386 nm until PMK addition (mevalonate kinase [3]) | enzyme activity, pET21 system (C terminal Tag) (mevalonate kinase [4]) [dABS/min/10 μl] | enzyme activity, pET28 system (N terminal Tag) (mevalonate kinase [4]) [dABS/min/10 μl] | dABS/min at ATP 0.04 mM (mevalonate kinase [2]) | affinity to mevalonate and ATP compared with the other enzymes (mevalonate kinase [2]; in words)
sce: mevalonate kinase of Saccharomyces cerevisiae encoded by the ERG12 gene, His-tagged purified enzyme (protein, UniProt P07277 1-443, looked up, His-tag) Mevalonate kinase: MSLPFLTSAPGKVIIFGEHSAVYNKPAVAASVSALRTYLLISESSAPDTIELDFPDISFNHKWSINDFNAITEDQVNSQKLAKAQQATDGLSQELVSLLDPLLAQLSESFHYHAAFCFLYMFVCLCPHAKNIKFSLKSTLPIGAGLGSSASISVSLALAMAYLGGLIGSNDLEKLSENDKHIVNQWAFIGEKCIHGTPSGIDNAVATYGNALLFEKDSHNGTINTNNFKFLDDFPAIPMILTYTRIPRSTKDLVARVRVLVTEKFPEVMKPILDAMGECALQGLEIMTKLSKCKGTDDEAVETNNELYEQLLELIRINHGLLVSIGVSHPGLELIKNLSDDLRIGSTKLTGAGGGGCSLTLLRRDITQEQIDSFKKKLQDDFSYETFETDLGGTGCCLLSAKNLNKDLKIKSLVFQLFENKTTTKQQIDDLLLPGNTNLPWTS | 0.1365 | 0.1028 | 0.03041 dABS/min and 0.0304 dABS/min and 0.03229 dABS/min | 0.07032 dABS/min and 0.07022 dABS/min and 0.0702 dABS/min | 0.09422 dABS/min and 0.0941 dABS/min and 0.09418 dABS/min | 0.01813 dABS/min and 0.01981 dABS/min and 0.01853 dABS/min | 0.05257 dABS/min and 0.05264 dABS/min and 0.05265 dABS/min | 0.11 dABS/min and 0.1103 dABS/min (2×) | almost linear decrease in absorbance | 0.001 | 0.127 | – | –
mma: known mevalonate kinase derived from Methanosarcina mazei (SEQ ID NO:12), His-tagged purified enzyme (protein, listed as Methanosarcina mazei, His-tag) MVSCSAPGKIYLFGEHAVVYGETAIACAVELRTRVRAELNDSITIQSQIGRTGLDFEKHPYVSAVIEKMRKSIPINGVFLTVDSDIPVGSGLGSSAAVTIASIGALNELFGFGLSLQEIAKLGHEIEIKVQGAASPTDTYVSTFGGVVTIPERRKLKTPDCGIVIGDTGVFSSTKELVANVRQLRESYPDLIEPLMTSIGKISRIGEQLVLSGDYASIGRLMNVNQGLLDALGVNILELSQLIYSARAAGAFGAKITGAGGGGCMVALTAPEKCNQVAEAVAGAGGKVTITKPTEQGLKVD | 0.21 | 0.1604 | 0.05835 dABS/min and 0.05848 dABS/min and 0.05859 dABS/min | 0.1533 dABS/min (2×) and 0.1528 dABS/min | – | 0.02921 dABS/min and 0.02805 dABS/min and 0.02788 dABS/min | 0.08012 dABS/min and 0.08006 dABS/min and 0.08009 dABS/min | 0.1761 dABS/min and 0.1758 dABS/min and 0.176 dABS/min | almost linear decrease in absorbance | 0.225 | 0.231 | 0.01326 dABS/min and 0.01358 dABS/min and 0.01398 dABS/min | –
cva: mevalonate kinase derived from Corynebacterium variabile (SEQ ID NO:3), His-tagged purified enzyme (protein, His-tag; Corynebacterium variabile) MAPHVGHGQTVAKIILFGEHSVVYGHPAIAMPLRTLRMIARVEPTDGPGTLSGLGWTGPITEAPARFSSIVKAAEVASDFAGHPGAGLNISTESEFPPERGLGSSAAAAGAVIRAVLDAFDTPATPRELFDLTQEAETVAHGRPSGLDAVATSAEAPVHFQAGQATDLEFSPDAWIVIADSGVEGSTRETVGHVRGRFEAEPDIITALLNRLGEITDEVVVDLRTGDVQGMGARMTEAHGILGQLGVSNTQLDALVTASLGAGALGAKLTGGGRGGCVIALAATEEDAENVEKALVDAGARGTWVHAPATGQMAGEVMQ | 0.08338 | 0.07328 | 0.005822 dABS/min and 0.005967 dABS/min and 0.005722 dABS/min | 0.02063 dABS/min and 0.02015 dABS/min and 0.02051 dABS/min | 0.03739 dABS/min and 0.03744 dABS/min and 0.03741 dABS/min | 0.01264 dABS/min and 0.01267 dABS/min and 0.01265 dABS/min | 0.03701 dABS/min and 0.03703 dABS/min and 0.03697 dABS/min | 0.0771 dABS/min and 0.07712 dABS/min and 0.07711 dABS/min | almost linear decrease in absorbance | 0.019 | 0.211 | – | –
mpd: mevalonate kinase derived from Methanocella paludicola (SEQ ID NO:1), His-tagged purified enzyme (protein, listed as Methanocella paludicola, His-tag) MTMCSAPGKVFLFGEHAVVYGKRAIACAIDLRTTVEVSRKSRGVHIHSAFKDEPDKNLYIKTAVKRMQKCADIRNVNIAVSSRIPVASGLGSSAAVTVATIGALNEEFSAGLSKKDIAYMAYQTELEVQGAASPTDTFVSTMGGTVVVPDMRTLPPITCGIVVGHTGISKSTSRMVSRVRTLKEKYPDVIDGIMDSIGDISARGEDLIKQNDYRSIGELMNVNQGLLDALGITIPELSLQIYAARQHGAYGAKITGAGGGGCMVAICDDKNCKEIATAIGRSYGDSFISKPTAEGIFIQ | 0.1573 | 0.148 | 0.03262 dABS/min and 0.03252 dABS/min and 0.0325 dABS/min | 0.04713 dABS/min and 0.04701 dABS/min and 0.04689 dABS/min | 0.05141 dABS/min (2×) and 0.05155 dABS/min | 0.06401 dABS/min and 0.0638 dABS/min and 0.06377 dABS/min | 0.1211 dABS/min and 0.1213 dABS/min and 0.121 dABS/min | 0.1506 dABS/min (2×) and 0.1505 dABS/min | almost linear decrease in absorbance | 0.011 | 0.031 | 0.01369 dABS/min and 0.01352 dABS/min and 0.01403 dABS/min | higher affinity to mevalonate and ATP than the other enzymes
